In paper PMC3590443 (Nature structural & molecular biology, 2012):
Substitutions are numbered along the chain they refer to. Names may count otherwise.

T1: PlxnA2_(1-4) F275N (mouse, UniProt P70207 35-703, F275N)
T1 sequence (looked up): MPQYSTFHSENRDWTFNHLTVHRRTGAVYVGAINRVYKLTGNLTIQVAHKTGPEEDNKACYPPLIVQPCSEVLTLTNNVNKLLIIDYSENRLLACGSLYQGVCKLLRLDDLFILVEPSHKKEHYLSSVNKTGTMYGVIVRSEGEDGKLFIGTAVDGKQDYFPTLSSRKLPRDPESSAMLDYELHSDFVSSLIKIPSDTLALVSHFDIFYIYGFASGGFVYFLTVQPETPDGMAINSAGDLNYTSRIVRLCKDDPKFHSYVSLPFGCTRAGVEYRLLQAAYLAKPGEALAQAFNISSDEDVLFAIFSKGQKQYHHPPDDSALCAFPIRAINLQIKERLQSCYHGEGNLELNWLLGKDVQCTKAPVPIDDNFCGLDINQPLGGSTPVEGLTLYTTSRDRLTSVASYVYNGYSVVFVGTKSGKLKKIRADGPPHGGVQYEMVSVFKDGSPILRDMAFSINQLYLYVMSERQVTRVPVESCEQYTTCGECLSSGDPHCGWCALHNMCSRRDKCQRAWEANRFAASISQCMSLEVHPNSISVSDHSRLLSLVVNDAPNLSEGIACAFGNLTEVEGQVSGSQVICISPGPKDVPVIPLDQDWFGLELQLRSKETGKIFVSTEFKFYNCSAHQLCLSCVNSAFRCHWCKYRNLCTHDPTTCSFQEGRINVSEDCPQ

T2: Nrp1_(1-4) P73A H74S (mouse, UniProt P97333 22-586, P73A | H74S)
T2 sequence (looked up): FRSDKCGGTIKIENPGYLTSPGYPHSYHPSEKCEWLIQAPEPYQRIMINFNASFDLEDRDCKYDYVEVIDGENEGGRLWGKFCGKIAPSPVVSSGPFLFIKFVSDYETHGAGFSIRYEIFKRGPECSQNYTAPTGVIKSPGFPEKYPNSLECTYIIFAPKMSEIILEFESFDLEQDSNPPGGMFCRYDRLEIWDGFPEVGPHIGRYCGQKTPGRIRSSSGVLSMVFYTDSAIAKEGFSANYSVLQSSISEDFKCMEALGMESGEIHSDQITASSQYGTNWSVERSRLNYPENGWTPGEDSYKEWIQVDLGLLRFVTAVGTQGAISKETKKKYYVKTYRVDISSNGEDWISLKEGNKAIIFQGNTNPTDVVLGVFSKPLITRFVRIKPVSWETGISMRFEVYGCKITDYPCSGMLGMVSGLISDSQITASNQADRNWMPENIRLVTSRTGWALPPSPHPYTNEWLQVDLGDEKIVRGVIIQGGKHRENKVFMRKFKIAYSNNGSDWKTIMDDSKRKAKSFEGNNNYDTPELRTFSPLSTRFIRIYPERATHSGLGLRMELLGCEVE

T3: Sema3AS-F with Nrp1_(1-4) (combination in the experiment with EDTA) (mouse, UniProt O08665 21-555; P97333 22-586)
T3 sequence (looked up) 1: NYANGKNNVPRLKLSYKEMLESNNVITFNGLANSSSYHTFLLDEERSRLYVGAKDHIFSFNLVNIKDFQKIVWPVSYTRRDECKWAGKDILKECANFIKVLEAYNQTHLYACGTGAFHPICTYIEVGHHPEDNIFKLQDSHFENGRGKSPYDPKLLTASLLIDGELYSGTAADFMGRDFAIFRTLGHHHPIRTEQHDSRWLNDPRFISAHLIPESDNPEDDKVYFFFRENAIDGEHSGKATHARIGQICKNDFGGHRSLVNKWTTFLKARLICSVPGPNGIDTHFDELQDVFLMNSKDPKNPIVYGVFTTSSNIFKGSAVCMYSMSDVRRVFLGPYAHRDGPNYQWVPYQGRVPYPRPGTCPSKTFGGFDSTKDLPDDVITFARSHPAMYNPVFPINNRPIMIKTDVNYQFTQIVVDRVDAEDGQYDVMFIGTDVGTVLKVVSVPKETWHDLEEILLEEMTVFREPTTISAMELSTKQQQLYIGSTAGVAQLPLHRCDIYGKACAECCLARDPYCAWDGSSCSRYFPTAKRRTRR
T3 sequence (looked up) 2: T2 sequence (looked up) with A52P, S53H

B1: Nrp1_(1-4) (mouse Nrp1 residues 22-586) (domain or fragment, UniProt P97333 22-586, looked up)
chain: T2 sequence (looked up) with A52P, S53H
B2: Sema3AS-P (mouse Sema3A residues 21-568, furin site mutated R551A and R555A) (domain or fragment, UniProt O08665 21-568, looked up)
chain: NYANGKNNVPRLKLSYKEMLESNNVITFNGLANSSSYHTFLLDEERSRLYVGAKDHIFSFNLVNIKDFQKIVWPVSYTRRDECKWAGKDILKECANFIKVLEAYNQTHLYACGTGAFHPICTYIEVGHHPEDNIFKLQDSHFENGRGKSPYDPKLLTASLLIDGELYSGTAADFMGRDFAIFRTLGHHHPIRTEQHDSRWLNDPRFISAHLIPESDNPEDDKVYFFFRENAIDGEHSGKATHARIGQICKNDFGGHRSLVNKWTTFLKARLICSVPGPNGIDTHFDELQDVFLMNSKDPKNPIVYGVFTTSSNIFKGSAVCMYSMSDVRRVFLGPYAHRDGPNYQWVPYQGRVPYPRPGTCPSKTFGGFDSTKDLPDDVITFARSHPAMYNPVFPINNRPIMIKTDVNYQFTQIVVDRVDAEDGQYDVMFIGTDVGTVLKVVSVPKETWHDLEEILLEEMTVFREPTTISAMELSTKQQQLYIGSTAGVAQLPLHRCDIYGKACAECCLARDPYCAWDGSSCSRYFPTAKARTRAQDIRNGDPLTHCS
B3: Sema3AS-P L353N P355S (domain or fragment, mouse, UniProt O08665 21-568, looked up)
chain: B2 chain with L333N, P335S
B4: PlxnA2_(1-4) (mouse PlxnA2 residues 35-703) (domain or fragment, UniProt P70207 35-703, looked up)
chain: T1 sequence (looked up) with N241F

Tests used:
Experiment in all cases: SPR
PlxnA2_(1-4) F275N = target: T1, PlxnA2_(1-4) F275N
Nrp1_(1-4) P73A H74S = target: T2, Nrp1_(1-4) P73A H74S
[1] = target: B1
[2] = target: T3, Sema3AS-F with Nrp1_(1-4) (combination …)

Binder: B1
binding result (PlxnA2_(1-4) F275N): binds

Binder: B2
binding result (Nrp1_(1-4) P73A H74S): binds

Binder: B3
binding result [1]: binds

Binder: B4
binding result [2]: binds
